Reference: patent publication US20210172932A1 (published 2021)

B1: Vedolizumab (antibody)
chain 1: not shown
chain 2: DVVMTQSPLSLPVTPGEPASISCRSSQSLAKSYGNTYLSWYLQKPGQSPQLLIYGISNRFSGVPDRFSGSGSGTDFTLKISRVEAEDVGVYYCLQGTHQPYTFGQGTKVEIKRTVAAPSVFIFPPSDEQLKSGTASVVCLLNNFYPREAKVQWKVDNALQSGNSQESVTEQDSKDSTYSLSSTLTLSKADYEKHKVYACEVTHQGLSSPVTKSFNRGEC
B2: Emicizumab (bispecific antibody)
chain 1: DIQMTQSPSSLSASVGDRVTITCKASRNIERQLAWYQQKPGQAPELLIYQASRKESGVPDRFSGSRYGTDFTLTISSLQPEDIATYYCQQYSDPPLTFGGGTKVEIKRTAAAPSVFIFPPSDEQLKSGTASVVCLLNNFYPREAKVQWKVDNALQSGNSQESVTEQDSKDSTYSLSSTLTLSKADYEKHKVYACEVTHQGLSSPVTKSFNRGEC
chain 2: QVQLVESGGGLVQPGGSLRLSCAASGFTFSYYDIQWVRQAPGKGLEWVSSISPSGQSTYYRREVKGRFTISRDNSKNTLYLQMNSLRAEDTAVYYCARRTGREYGGGWYFDYWGQGTLVTVSSASTKGPSVFPLAPCSRSTSESTAALGCLVKDYFPEPVTVSWNSGALTSGVHTFPAVLQSSGLYSLSSVVTVPSSSLGTQTYTCNVDHKPSNTKVDKRVESKYGPPCPPCPAPEFLGGPSVFLFPPKPKDTLMISRTPEVTCVVVDVSQEDPEVQFNWYVDGVEVHNAKTKPREEQYNSTYRVVSVLTVLHQDWLNGKEYKCKVSNKGLPSSIEKTISKAKGQPREPQVYTLPPSQKEMTKNQVSLTCLVKGFYPSDIAVEWESNGQPENNYKTTPPVLDSDGSFFLYSKLTVDKSRWQEGNVFSCSVMHEALHNRYTQKSLSLSPEQKLISEEDLNAVGQDTQEVIVVPHSLPFKVVVISAILALVVLTIISLIILIMLWQKKPR
chain 3: QVQLVQSGSELKKPGASVKVSCKASGYTFTDNNMDWVRQAPGQGLEWMGDINTRSGGSIYNEEFQDRVIMTVDKSTDTAYMELSSLRSEDTATYHCARRKSYGYYLDEWGEGTLVTVSSASTKGPSVFPLAPCSRSTSESTAALGCLVKDYFPEPVTVSWNSGALTSGVHTFPAVLQSSGLYSLSSVVTVPSSSLGTQTYTCNVDHKPSNTKVDKRVESKYGPPCPPCPAPEFLGGPSVFLFPPKPKDTLMISRTPEVTCVVVDVSQEDPEVQFNWYVDGVEVHNAKTKPREEQYNSTYRVVSVLTVLHQDWLNGKEYKCKVSNKGLPSSIEKTISKAKGQPREPQVYTLPPSQEEMTKNQVSLTCLVKGFYPSDIAVEWESNGQPENNYKTTPPVLDSDGSFFLYSKLTVDKSRWQEGNVFSCSVMHEALHNHYTQESLSLSPEQKLISEEDLNAVGQDTQEVIVVPHSLPFKVVVISAILALVVLTIISLIILIMLWQKKPR
B3: Tocilizumab (antibody)
chain 1: not shown
chain 2: not shown
B4: Pembrolizumab (antibody)
chain 1: not shown
chain 2: EIVLTQSPATLSLSPGERATLSCRASKGVSTSGYSYLHWYQQKPGQAPRLLIYLASYLESGVPARFSGSGSGTDFTLTISSLEPEDFAVYYCQHSRDLPLTFGGGTKVEIKRTVAAPSVFIFPPSDEQLKSGTASVVCLLNNFYPREAKVQWKVDNALQSGNSQESVTEQDSKDSTYSLSSTLTLSKADYEKHKVYACEVTHQGLSSPVTKSFNRGEC

target: T1, human FcRn (immobilized on nickel-nitrilotriacetic acid-coated biosensors) (human, UniProt P55899 24-297; P61769 21-119); experiment: BLI (Octet RED), FcRn on Ni-NTA biosensor, pH 6.0
T1 construct: also called neonatal Fc receptor

First: B1
Second: B2
The Kd of the first is 2-fold lower: 610 nM for the first, 1230 nM for the second. The first binds more tightly here.

Going from B3 to B4, the Kd falls from 460 nM to 290 nM (1.6-fold). The second binds more tightly here.
